In the supplement of paper PMC10567573:
± gives the standard deviation.

Assay: protein stability index of a GFP-peptide fusion (GPS, HEK-293T) (PSI 1-6); higher = more stable
Details: c terminus: a fixed tail appended
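Further: 24-mer peptide tiles fused after GFP, lentivirally expressed, FACS-sorted into six equal bins by GFP/DsRed ratio, decoded by Illumina sequencing, PSI is the read-weighted mean bin number.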

Sequence	protein stability index (treatment: DMSO)	protein stability index (treatment: MLN4924 1 uM, 8 h)
DGDIPNIPAEENASTSTPSSTLVR [FAM189A2]	5.47 ± 0.2	5.55 ± 0.15
DGKLQLLQKLLSGRSREELDELTG [FEM1A]	3.24 ± 0.31	3.29 ± 0.26
DGRQLRKMLRKEAAARCVVLDCRP [DUSP5]	2.69 ± 0.24	3.07 ± 0.23
DHPGIHEPLEPEVKYVGNMHGNEA [CPN1]	4.98 ± 0.56	5.08 ± 0.19
DHPIVETLRQKAEADKNDKAVKDL [HSP90AB1]	5.58 ± 0.29	5.64 ± 0.14
DIFPELDDILYHVKGMQRIVNQWS [DLC1]	2.42 ± 0.13	2.49 ± 0.12
DIYKQECSSRPLQKGSHPMCKEHE [TRIM63]	4.49 ± 0.24	4.67 ± 0.23
DKWVNDPHRMDRRLLALIYLAHAS [GOLPH3]	2.63 ± 0.91	2.1 ± 0.31
DLCLLYPPFMIALACLHVACVVQQ [CCNC]	3.11 ± 0.28	3.12 ± 0.24
DLDANLRKLNSRLFVIRGQPADVF [CRY1]	2.07 ± 0.29	2.55 ± 0.4
DLGLAPRELAERGVRIVSRGRTQL [PCDHGA10]	3.75 ± 0.16	3.81 ± 0.25
DLSDNRNEDPLVLLAWRCTKLSLL [FBXO33]	2.54 ± 0.38	2.22 ± 0.24
DMFDADGGGDISVKELGTVMRMLG [TNNC2]		2.58 ± 0.16
DMIYVSGGFDGSRRHTSMERYDPN [KLHL12]	3.85 ± 0.15	4 ± 0.3
DNDRTTPSDLDSTGNSLNEPEEPS [DLC1]	5.61 ± 0.21	5.63 ± 0.11
DNEYAYLKAIIFFDPDAKGLSDPG [HNF4A]	1.92 ± 0.19	2.14 ± 0.092
DPDECGSDYISEFRFAPNHTKELE [EPB41L3]	2.91 ± 0.91	3.67 ± 0.79
DPGLGEGPALWLRSTCVYVCALSA [PLEKHN1]	2.55 ± 0.045	2.09 ± 0.38

Sequence	protein stability index (treatment: DMSO)	protein stability index (treatment: MLN4924 1 uM, 8 h)
DRGSCVSTTEGIQLAKELGATYLE [RHOBTB3]	4.45 ± 0.14	4.47 ± 0.24
DSGQYWPSVYHAMPSPCSCMSFNP [WDFY2]	2.37 ± 0.19	2.31 ± 0.44
DSHVSSCSEDWVGYQRKCYFISTV [CD69]	2.46 ± 0.88	2.65 ± 0.6
DSMYGECRTYIIHYYLMDDTVEIR [EFHC1]	2.35 ± 0.6	2.6 ± 0.69
DTGHDSDKSDQSLPNASADSLGGS [TRAF3IP2]	5.35 ± 0.42	5.51 ± 0.18
DTSKQKKMETMYPFIVTLEGNALQ [ZNF449]	3.12 ± 0.34	2.85 ± 0.12
DVPTIQEKVNEGKYRSYEEFKADA [ZMYND11]	5.21 ± 0.3	5.26 ± 0.15
DVTSGDHGDYFRLLLPGIYTVSAT [CPN1]	2.29 ± 0.57	2.02 ± 0.23
DVVCKNQDELRNRSVKVICLGSLA [FAN1]	2.72 ± 0.26	2.98 ± 0.2
DWNEWRDYHLLHPVENIPEIILYW [SLC25A25]	2.35 ± 0.51	2.2 ± 0.12
DWVVVKEPVIKVAAIDNGLAFPLK [PI4K2A]	2.52 ± 0.43	2.94 ± 0.29
DYFISYGIEHAQCVPPSEFSEPSF [ETS1]	2.49 ± 0.26	2.67 ± 0.18
DYFPSEDFYRCGYCKNESGSRSNG [ATE1]	3.07 ± 0.32	3.35 ± 0.49
DYRPMNHEAFKDELKTFRLKTRSW [CDC25B]	3.46 ± 0.27	3.41 ± 0.25
EAKSAQPADGWKGERPRSEEDNEL [GCH1]	5.56 ± 0.098	5.35 ± 0.16
EATQFLKQILDGVHYLHSKRIAHF [DAPK3]	2.9 ± 0.44	2.92 ± 0.56
ECFMCSDCGLNLKQRGYFFLDERL [PDLIM4]	2.26 ± 0.32	2.08 ± 0.34
EDDAQSRRDEQDDDDKGDSKETRL [GOLPH3]	5.54 ± 0.21	5.66 ± 0.17
